± gives the standard deviation.
Assay: protein stability index of a GFP-peptide fusion (GPS, HEK-293T) (PSI 1-6); higher = more stable
Settings: c terminus: a fixed tail appended
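Also: 24-mer peptide tiles fused after GFP, lentivirally expressed, FACS-sorted into six equal bins by GFP/DsRed ratio, decoded by Illumina sequencing, PSI is the read-weighted mean bin number.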

Row | Sequence | protein stability index (treatment: DMSO) | protein stability index (treatment: MLN4924 1 uM, 8 h)
1 | LPPPDPNPPRAEFNYSVGFKDLNE [APBB1IP] | 4.42 ± 0.23 | 4.36 ± 0.075
2 | LSSPEFSELCIWLGSQIKSLCNLE [FAM98B] | 2.17 ± 0.81 | 2.76 ± 0.82
3 | ELQQRNPKAERLRWSPAQEESFRQ [ZNF232] | 3.3 ± 0.37 | 3.49 ± 0.77
4 | PQQHFLEEKQASLWVQGDIFRSKL [CDC14A] | 3.12 ± 0.18 | 3.14 ± 0.28
5 | KSIDDTSNFDDFPESDILQPVPNT [STK38L] | 5.25 ± 0.24 | 5.27 ± 0.077
6 | ESIQRIAVHLCNALVCQVDNDHKE [ZER1] | 2.81 ± 0.63 | 2.64 ± 0.36
7 | YRHFLKSPNFDGWFKTRRKEMTQK [DENND6A] | 2.83 ± 0.37 | 3.24 ± 0.12
8 | RNNANGVDLNRNFPDLNTYIYYNE [CPN1] | 3.17 ± 0.26 | 3.14 ± 0.28
9 | DTGLFSRSKSGSEEVLCDSCIGNK [TRIM29] | 4.61 ± 0.1 | 4.92 ± 0.23
10 | PPAEEAEQPGALAREFLAAMEPEP [FKBP8] | 5.49 ± 0.45 | 5.57 ± 0.072
11 | RSFKEELLCAVCYDPFRDAVTLRC [TRIM35] | 2.58 ± 0.63 | 2.61 ± 0.61
12 | DLEEERREEEEKTPPETKPDPPVN [PCMTD2] | 5.64 ± 0.37 | 5.48 ± 0.48
13 | AQEDSLNKLALQYGCKVADIKKVN [LYSMD4] | 3.41 ± 0.14 | 3.71 ± 0.15
14 | TELRLLGRTHSACDALRTLAEARR [RSAD1] | 3.46 ± 0.21 | 3.59 ± 0.18
15 | AFVRMKQLIEEGYVGEPLVCEVQV [GFOD1] | 2.47 ± 0.77 | 2.55 ± 0.71
16 | EFHPHHCNTFVYSSSKGTIRLCDM [PPP2R2B] | 2.31 ± 0.29 | 2.15 ± 0.18
17 | ALMRMLDNLGYRTGYPYRYPALRE [ADD1] | 2.79 ± 0.4 | 2.65 ± 0.59
18 | PEPLFLGEEDFSLSATIGSILREL [SERTAD3] | 2.6 ± 0.12 | 2.57 ± 0.31
19 | FQFTDWPEQGVPKSGEGFIDFIGQ [PTPRD] | 2.68 ± 0.22 | 2.84 ± 0.31
20 | ERHCHLYTFHARFGEVRPYFYLGG [TRIM35] | 2.61 ± 0.49 | 2.6 ± 0.52
21 | HDIVRFLVQLDDYRFASAGDDGIV [WDR41] | 2.21 ± 0.061 | 2.2 ± 0.25
22 | IAATELEKEESRREAEKQNYLAEH [TNNI2] | 5.3 ± 0.25 | 5.37 ± 0.26
23 | EEGLEARGEALGLVGAQAPATEEQ [MAGEA3] | 5.57 ± 0.27 | 5.39 ± 0.34

Row | Sequence | protein stability index (treatment: DMSO) | protein stability index (treatment: MLN4924 1 uM, 8 h)
24 | EKLSRGLRYYYDKNIIHKTSGKRY [ETS2] | 2.74 ± 0.34 | 2.92 ± 0.2
25 | KIGCGNFGELRLGKNLYTNEYVAI [CSNK1G1] | 2.51 ± 0.54 | 2.12 ± 0.59
26 | SPKYKQDVEGAESQLDEDEHGLHT [TRAF3IP2] | 5.45 ± 0.14 | 5.5 ± 0.27
27 | WVCQRSTVASMMHRQETVECLKKF [CAMK2B] | 2.73 ± 0.51 | 2.9 ± 0.52
28 | RWKRRRSYSREHEGRLRYPSRREP [CLK3] | 3.86 ± 0.39 | 4.14 ± 0.36
29 | CGRKLAKDGEYCWRWTGFNFGFDL [GMCL1] | 2.72 ± 0.54 | 2.71 ± 0.91
30 | KEGRPGIPGLPGLRGLPGERGTPG [SCARA5] | 4.21 ± 0.41 | 4.43 ± 0.24
31 | MHYQMSVTLKYEIKKLIYVHLVIW [JAGN1] | 3.1 ± 0.32 | 3.15 ± 0.8
32 | KSSSLLTQTSEECNGILTEKMEEE [ZNF396] | 5.56 ± 0.15 | 5.54 ± 0.27
33 | AAAAMYTFLPDNFSPAKPKPSKEL [MYORG] | 3.62 ± 0.11 | 3.59 ± 0.3
34 | QCGPQTGLQSPGTLQPPEFLYSHG [TBX5] | 3.41 ± 0.25 | 3.37 ± 0.34
35 | RVAHEPVAPPEDKESESEAKVDGE [CDS2] | 5.47 ± 0.21 | 5.63 ± 0.27
36 | KEQDGREVDWEYFYGLLFTSENLK [DFFB] | 2.617 ± 0.019 | 2.93 ± 0.01
37 | ALSPSATAKRINRTSLSSGATVRS [CDC14A] | 4.1 ± 0.11 | 4.16 ± 0.11
38 | LRQLVESDINSLRRILDELTLCRS [KRT33B] | 2.31 ± 0.14 | 2.41 ± 0.15
39 | FLPLNSAQTLHHKSCYNGRFQLLY [DNAAF3] | 2.54 ± 0.32 | 2.38 ± 0.36
40 | AESQGCNHEEDAGVRCNTPAMGLQ [LOXL2] | 5.34 ± 0.27 | 5.29 ± 0.3
41 | ERTYSANCSDFLESKGCFANTTPS [SPATS1] | 3.67 ± 0.14 | 3.56 ± 0.18
42 | RAGGPPRPMSEPGAGAGSSLLDVA [SMAD6] | 4.39 ± 0.39 | 4.37 ± 0.39
43 | EMDKLRASDIMEPNLTYVYPHTRI [CLCN6] | 2.58 ± 0.23 | 2.92 ± 0.31
44 | GYTFGQDISETFNHANGLTLVSRA [PPP2CA] | 3.26 ± 0.3 | 3.19 ± 0.28
45 | KNSDGMEAAGVQIQMVNESLGYVR [CD207] | 3.83 ± 0.28 | 4.08 ± 0.13
46 | YDPDYIQCPYCQRRFNENAADRHI [ZC2HC1A] | 3.84 ± 0.24 | 4.16 ± 0.34

Row | Sequence | protein stability index (treatment: DMSO) | protein stability index (treatment: MLN4924 1 uM, 8 h)
47 | SNLSVENVADTLVLADLHSAEQLK [SPOPL] | 4.65 ± 0.27 | 4.61 ± 0.19
48 | NDLLEILEIDDLDAIVPAVKKLKV [CEP70] | 2.4 ± 0.46 | 2.87 ± 0.27
49 | DALSSPTSVQEADETTRSDISERP [C2CD2L] | 5.64 ± 0.35 | 5.61 ± 0.24
50 | NYVLEEVDEAAAESPSFLSLRKGA [NCK2] | 4.75 ± 0.2 | 4.83 ± 0.13
51 | SEAWEYFHLAPARAGHHPNQYATC [ZBED2] | 2.59 ± 0.26 | 2.58 ± 0.23
52 | WEALNMMGLYDGMEHLIYGEPRKL [MAGEA10] | 2.22 ± 0.59 | 2.45 ± 0.34
53 | RSTCNVVQDEFLDTPCTNRGLPLL [DLC1] | 3.21 ± 0.27 | 3.21 ± 0.42
54 | PAPASPAISVVGVSAGGHTLSRPP [TFE3] | 4.37 ± 0.28 | 4.38 ± 0.25
55 | GHVEVARLLLDSGAQVNMPADSFE [ANKRD17] | 3.88 ± 0.091 | 3.83 ± 0.24
56 | AALLILFAASLLTVFAWLLQYARG [C2CD2L] | 2.74 ± 0.46 | 3.15 ± 0.46
57 | IDEVRTQYEEIALKSKAEAEALYQ [KRT71] | 4.77 ± 0.29 | 5.01 ± 0.26
58 | LSGVDLELVGSGYRMSLVKRRFAT [FCHO1] | 2.33 ± 0.2 | 2.37 ± 0.18
59 | AFPSGHLLDAHILEWHDSLFQILS [ZNF511] | 2.35 ± 0.33 | 2.29 ± 0.3
60 | ETTEAIDDEGWLHSGDLGQLDGLG [ACSBG2] | 5.23 ± 0.25 | 5.15 ± 0.21
61 | FAYYKLNDVRQAARSAASYMLFDP [P3H4] | 2.12 ± 0.22 | 2.14 ± 0.16
62 | QLHKPLAEGTPRSNHSAQDSAVEN [IKZF1] | 5.35 ± 0.35 | 5.39 ± 0.3
63 | YWKDTRTSGVVFTGLMVSLLCLLH [RTN2] | 2.3 ± 0.24 | 2.2 ± 0.28
64 | FKKVLDLNPGFQDATLSLKQTILD [TTC32] | 2.7 ± 0.24 | 2.86 ± 0.2
65 | LDLLLDMPPVSYDVQLLHSWNNND [SPSB1] | 2.66 ± 0.32 | 2.65 ± 0.23
66 | RYEPDSKAFGVGVAYRSLGRFEQL [FSD1] | 2.48 ± 0.38 | 2.63 ± 0.33
67 | TPLHVAAANKAVKCAEVIIPLLSS [ANKRD44] | 2.44 ± 0.26 | 2.54 ± 0.22
68 | DCMAALGLAYDRKKVSKAAILARI [SCD] | 1.94 ± 0.3 | 2.29 ± 0.2
69 | ESEFDIEDEDKSEPEQTGADAAED [RBBP5] | 5.73 ± 0.18 | 5.826 ± 0.029

Row | Sequence | protein stability index (treatment: DMSO) | protein stability index (treatment: MLN4924 1 uM, 8 h)
70 | RQDLEDRYAEHVAATQALPQDSGT [C22orf31] | 5.4 ± 0.17 | 5.46 ± 0.3
71 | VLGSQDALPIATAFTEYVHAYFRG [FCHO1] | 2.51 ± 0.25 | 2.43 ± 0.21
72 | GSRISVSRSTSFRGGMGSGGLATG [KRT18] | 3.65 ± 0.19 | 4.04 ± 0.69
73 | IFNVAIPRFHMACPTFRVSIARLE [FBXO3] | 2.19 ± 0.57 | 2.2 ± 0.47
74 | LEISPDCSQYDRVYCGAGVQKEHE [PCMTD2] | 4.56 ± 0.3 | 4.44 ± 0.21
75 | VSNTYVKQKTSAALSTMGTLICRK [TPD52L3] | 3.41 ± 0.55 | 2.98 ± 0.41
76 | ASTKMCEQALGKGCGADSKKKRPP [PLK2] | 4.58 ± 0.11 | 4.76 ± 0.24
77 | VVAGDTVSTGSTDNSPTSNSLEGG [ADAMTSL2] | 5.39 ± 0.4 | 5.48 ± 0.15
78 | EEYCHKHYDRNKDGNKDVYLSLLR [VPS39] | 3.23 ± 0.35 | 3.19 ± 0.27
79 | ACHPFLLGPPLVRKRIHDSRVAGF [TOR1AIP2] | 2.51 ± 0.39 | 2.5 ± 0.18
80 | ICQKTATKKRKTFDSSRQRAEGTD [ZC2HC1A] | 4.8 ± 0.1 | 4.67 ± 0.53
81 | TFPFKILGDSGLGPWQLNVFVCRV [P2RY14] | 3.47 ± 0.73 | 3.26 ± 1.5
82 | ERRGTPADTEEPTKDPDVAFHGLS [PSD2] | 5.38 ± 0.42 | 5.38 ± 0.17
83 | IDVEALQVAFGSLYRDDVLIKPSR [GMCL1] | 2.37 ± 0.16 | 2.48 ± 0.37
84 | HTHRAHTVVPLDDATQEYKEKLQK [TRIM39] | 5.39 ± 0.2 | 5.3 ± 0.35
85 | DMRRDEEGSLCAAHLPKAQLSGYA [FBF1] | 4.12 ± 0.25 | 4.15 ± 0.25
86 | LALLVLAHSSDVLENVFSSLTDDK [GOLPH3L] | 2.85 ± 0.57 | 2.83 ± 0.49
87 | VKKDHVALQVPRGKEDSTLQLLRE [CBY2] | 4.26 ± 0.069 | 4.37 ± 0.07
88 | VAAAASRGADDAMESSKPGPVQVV [ATL3] | 5.03 ± 0.26 | 4.9 ± 0.25
89 | PDGLMYQKFRNQFLSFSMYQSFVQ [TMEM120A] | 2.68 ± 0.59 | 2.33 ± 0.76

Reference: the supplement of paper PMC10567573
